Source: the supplement of paper PMC10567573
± gives the standard deviation.

Experiment: protein stability index of a GFP-peptide fusion (GPS, HEK-293T) (PSI 1-6); higher = more stable
[1] = treatment: DMSO, c terminus: a fixed tail appended
[2] = treatment: MLN4924 1 uM, 8 h, c terminus: a fixed tail appended
[3] = treatment: DMSO, c terminus: native
[4] = treatment: MLN4924 1 uM, 8 h, c terminus: native
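Further: 24-mer peptide tiles fused after GFP, lentivirally expressed, FACS-sorted into six equal bins by GFP/DsRed ratio, decoded by Illumina sequencing, PSI is the read-weighted mean bin number.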

| Sequence | protein stability index [1] | protein stability index [2] | protein stability index [3] | protein stability index [4] |
| --- | --- | --- | --- | --- |
| CLAKGTFSDVTFILDDGTISAHKP [RHOBTB2] | 2.36 ± 0.27 | 2.46 ± 0.17 | – | – |
| AQPNTMLGRMFGSGREHNFTRPNE [BTBD10] | 3.74 ± 0.53 | 3.61 ± 0.39 | – | – |
| MASGPGSQEREGLLIVKLEEDCAW [ZNF263] | 2.44 ± 0.36 | 2.28 ± 0.47 | – | – |
| WAEAECQRQQLPVTFGNKQKVLGK [BTBD1] | 4.42 ± 0.45 | 4.31 ± 0.42 | – | – |
| REAKMICFKSVAKTPYDTSRRQEK [ELOA2] | 3.97 ± 0.22 | 4.11 ± 0.58 | – | – |
| RGLGLGGRRLKSPQAPDPEEEENR [FANCE] | 5.11 ± 0.23 | 5.58 ± 0.38 | – | – |
| EQERRERREQAAAAPFPSPAPASP [TFE3] | 5.52 ± 0.18 | 5.48 ± 0.14 | – | – |
| VSSNNRLVVTGSGEHASVYQITY [TLE6] | – | – | 2.7 ± 0.26 | 2.68 ± 0.23 |
| LDAVEAQIGCKLPDDYRCSYRIHN [FBXO3] | 2.98 ± 0.39 | 3.15 ± 0.33 | – | – |
| EQGAIPRLVQLLVRAHQDTQRRTS [CTNNB1] | 3.18 ± 0.19 | 3.26 ± 0.22 | – | – |
| THFNTAQGFRTVLELVINYQQLCI [OAS1] | 3.26 ± 0.87 | 2.76 ± 0.37 | – | – |
| RTVKLIRYVSNWDFFIVGCEVIFC [PKD2L1] | 2.79 ± 0.56 | 2.58 ± 0.47 | – | – |
| EMTTTDDLDFKHHNYKEMRQLMKV [CPXM2] | 3.75 ± 0.099 | 3.53 ± 0.18 | – | – |
| WNFEITNQSFNIVDIKPANMEELT [PPP2R2B] | 3.4 ± 0.55 | 3.13 ± 0.65 | – | – |
| KVKTMEVTSVSIELEKNFSNFPRQ [TRIM39] | 3.15 ± 0.23 | 3.42 ± 0.36 | – | – |
| FDVFSPKQDLVPGSPDDSHPKDGP [DLC1] | 5.43 ± 0.36 | 5.43 ± 0.33 | – | – |
| QSSADGSQPPKKKPKTTNIELQGV [RBBP5] | 5.09 ± 0.16 | 5.26 ± 0.36 | – | – |
| REPYYARPEPELETFSPPLPAGPG [CPXM2] | 4.7 ± 0.26 | 4.47 ± 0.38 | – | – |
| KVFIPSLFLSHVLALGLGIYIGKR [BNIP3L] | 2.34 ± 0.89 | 2.3 ± 0.6 | – | – |
| TRVLAEMREQYEAMAERNRRDAEE [KRT13] | 5.26 ± 0.2 | 5.18 ± 0.28 | – | – |
| DSIKDEDRTSLATFHEGKHNISHM [WDFY1] | 4.66 ± 0.23 | 4.59 ± 0.28 | – | – |
| EILLDFVYTETVHVTVENVQELLP [KLHL12] | 2.31 ± 0.59 | 2.4 ± 1.3 | – | – |

| Sequence | protein stability index [1] | protein stability index [2] | protein stability index [3] | protein stability index [4] |
| --- | --- | --- | --- | --- |
| ASHLGNELEGTEELCCVAELDNPM [C2CD2L] | 5.2 ± 0.23 | 5.25 ± 0.18 | – | – |
| METFDPTELPELLKLYYRRLFPYS [PRIM1] | 2.43 ± 0.51 | 2.38 ± 0.35 | – | – |
| PPPPPGLPSDGDHQVPTTAGNKAA [WASL] | 5.46 ± 0.33 | 5.43 ± 0.12 | – | – |
| YANLALSGLIEIQSYPLCIYLINQ [SLC22A15] | 3.9 ± 0.46 | 3.34 ± 0.19 | – | – |
| PVRTTNKISKQFVAPADVRRLLSY [ZSWIM9] | 2.44 ± 0.17 | 2.84 ± 0.13 | – | – |
| VEPPGPGDTVVQGDLQETTVVTGL [PBXIP1] | 5.31 ± 0.4 | 5.15 ± 0.46 | – | – |
| PPYSRLSPRDEYKPLDLSDSTLSY [SMAD6] | 3.89 ± 0.18 | 3.84 ± 0.24 | – | – |
| SDPCGQLRPTLLLTSLHHFMHSRN [PNLIPRP1] | 2.3 ± 0.35 | 2.6 ± 0.24 | – | – |
| EAAEGRNKNEVFYQCPDQMARNPA [FBXO3] | 5 ± 0.32 | 4.67 ± 0.52 | – | – |
| DFYREDEDEEEEEGGEGEKEGEGE [TRIM55] | 5.57 ± 0.57 | 5.79 ± 0.084 | – | – |
| QWLRPHVSTKEQILDLLVLEQFLS [ZSCAN9] | 2.07 ± 0.5 | 2.22 ± 0.44 | – | – |
| PVMNGGVQTWTQPRLCYLVKEGGS [PDZK1] | 2.75 ± 0.23 | 3.09 ± 0.27 | – | – |
| DNPLDRPLVGQDEFFLEQTKKKGV [NOP53] | 5.25 ± 0.3 | 5.37 ± 0.22 | – | – |
| EMSLAEELNHGRQGENQEHLVIAE [FATE1] | 5.44 ± 0.12 | 5.2 ± 0.24 | – | – |
| RGAPRGGGRGGSRSDRGGGRSRY [RBMX] | – | – | 5.34 ± 0.14 | 5.33 ± 0.11 |
| WIDIKQFVWYTPPTFMIAVFLPIV [STEAP1] | 2.67 ± 0.36 | 3.39 ± 0.61 | – | – |
| GHGMTPLKVAAESCKADVVELLLS [FEM1B] | 2.29 ± 0.21 | 2.47 ± 0.34 | – | – |
| QAIIESCSRQFPEFQERARKRIRT [NOL4L] | 3.69 ± 0.27 | 4.09 ± 0.21 | – | – |
| MGIYQMYLCFLLAVLLQLYVATEA [SLC22A15] | 2.92 ± 0.38 | 2.84 ± 0.41 | – | – |
| EDVLLLNFEEMRALLDSLPPPVES [KLHL14] | 3.34 ± 0.24 | 3.57 ± 0.41 | – | – |
| GDVMHLSQSPSVSQLSVLSLSGVM [PRAME] | 2.43 ± 0.42 | 2.28 ± 0.31 | – | – |
| GQTPLAVSISISGSSRPCLDFLQE [ASB7] | 2.83 ± 0.93 | 2.24 ± 0.37 | – | – |
